Holding throughout (assay): two-hybrid library CCNG1;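 note: natural log of median RNA to DNA barcode read ratio; higher means stronger binding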
Test [1] deals with T1, 4H3427-bH.
T1 chain: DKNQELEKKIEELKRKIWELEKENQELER

The target of test [2] is T2, 4H3010-bH.
T2 chain: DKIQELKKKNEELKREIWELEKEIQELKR

Test [3] has as its target T3, 4H1831-bH.
T3 chain: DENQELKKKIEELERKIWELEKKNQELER

Test [4] has as its target T4, 4H2586-bH.
T4 chain: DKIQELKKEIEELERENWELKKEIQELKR

Test [5] addresses T5, 4H2673-bH.
T5 chain: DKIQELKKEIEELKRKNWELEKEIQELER

Test [6] has as its target T6, 4H575-bH.
T6 chain: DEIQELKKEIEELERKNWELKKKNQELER

For test [7], the target named is T7, 4H2627-bH.
T7 chain: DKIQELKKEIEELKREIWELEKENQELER

The target in test [8] is T8, 4H170-bH.
T8 chain: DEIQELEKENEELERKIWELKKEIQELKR

Test [9] concerns the target T9, 4H346-bH.
T9 chain: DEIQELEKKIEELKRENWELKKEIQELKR

Test [10] deals with T10, 4H855-bH.
T10 chain: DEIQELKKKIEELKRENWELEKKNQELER

For test [11], the target named is T11, 4H797-bH.
T11 chain: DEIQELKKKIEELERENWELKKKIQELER

The target in test [12] is T12, 4H3112-bH.
T12 chain: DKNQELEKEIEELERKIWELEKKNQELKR

The target in test [13] is T13, 4H918-bH.
T13 chain: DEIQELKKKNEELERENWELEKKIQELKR

Test [14] addresses T14, 4H953-bH.
T14 chain: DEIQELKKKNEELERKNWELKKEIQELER

Test [15] deals with T15, 4H780-bH.
T15 chain: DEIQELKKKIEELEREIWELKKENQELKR

The target of test [16] is T16, 4H457-bH.
T16 chain: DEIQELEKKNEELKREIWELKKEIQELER

Test [17] addresses T17, 4H754-bH.
T17 chain: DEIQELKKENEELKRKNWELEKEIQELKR

In test [18] the target is T18, 4H3926-bH.
T18 chain: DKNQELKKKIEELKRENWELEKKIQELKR

Test [19] deals with T19, 4H968-bH.
T19 chain: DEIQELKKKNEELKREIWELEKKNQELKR

Test [20] deals with T20, 4H4073-bH.
T20 chain: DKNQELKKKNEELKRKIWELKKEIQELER

For test [21], the target named is T21, 4H2702-bH.
T21 chain: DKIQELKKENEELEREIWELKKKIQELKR

The target of test [22] is T22, 4H683-bH.
T22 chain: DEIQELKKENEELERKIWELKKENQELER

The target of test [23] is T23, P7A-bS.
T23 chain: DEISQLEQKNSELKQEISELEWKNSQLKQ

Test [24] deals with T24, P9A-bS.
T24 chain: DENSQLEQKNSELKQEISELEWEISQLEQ

Test [25] concerns the target T25, P6A-bS.
T25 chain: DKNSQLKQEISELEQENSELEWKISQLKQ

In test [26] the target is T26, P1A-bS.
T26 chain: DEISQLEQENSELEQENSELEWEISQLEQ

For test [27], the target named is T27, P5A-bS.
T27 chain: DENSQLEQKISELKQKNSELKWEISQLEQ

Test [28] has as its target T28, P3A-bS.
T28 chain: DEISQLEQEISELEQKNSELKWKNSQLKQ

For test [29], the target named is T29, P8A-bS.
T29 chain: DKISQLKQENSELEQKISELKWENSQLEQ

In test [30] the target is T30, P4A-bS.
T30 chain: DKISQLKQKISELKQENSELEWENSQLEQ

The target in test [31] is T31, P2A-bS.
T31 chain: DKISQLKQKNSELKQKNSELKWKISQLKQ

Test [32] addresses T32, 4H741-bN.
T32 chain: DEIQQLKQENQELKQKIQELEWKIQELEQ

Test [33] has as its target T33, 4H796-bA.
T33 chain: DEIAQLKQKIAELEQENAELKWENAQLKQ

In test [34] the target is T34, 4H492-bN.
T34 chain: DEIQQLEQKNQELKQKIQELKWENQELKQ

B1: 4H170-bH (peptide)
chain: DEIQELEKENEELERKIWELKKEIQELKR
On to B1, for which the interaction score is 0.596 in test [1]; 2.38 in test [2]; -0.0127 in test [3]; -1.02 in [4]; -0.0221 in test [5]; -1.59 in test [6]. Besides, the interaction score in test [7] was 0.774; in test [8] it was 0.761; in test [9] it was -0.205; in test [10], -0.762; in test [11], 0.264; in [12] it was 0.343. Also, the interaction score in test [13] is 0.183; in test [14], 0.0231; in test [15], -0.492; in test [16], 1.82; in test [17], 1.02; in test [18], 0.549. For the same molecule, the interaction score was 1.47 in test [19], 1.14 in [20], 1.84 in [21] and -0.173 in test [22].

B2: P1A-bS (peptide)
chain: DEISQLEQENSELEQENSELEWEISQLEQ
As for B2, the interaction score was -1.96 in [23]; -1.08 in test [24]; 0.0466 in test [25]; -0.982 in test [26]; -0.939 in test [27]; -0.598 in test [28]. Further, the interaction score is -0.899 in [29], -0.182 in [30] and 1.9 in test [31].

B3: 4H492-bN (peptide)
chain: DEIQQLEQKNQELKQKIQELKWENQELKQ
With B3, the interaction score in test [32] is -0.326; in [33], 0.0979; in test [34], -0.118; in test [26] it was -1.07.

Values taken from publication PMC10397247.
